Experimental data as given in the RNAGym collection of RNA variant scans (doi:10.1073/pnas.2313332121).
Fewer inactive variants are shown than the library holds.

B1: TPR 5TU (parent)
chain: GGAUCUUCUCGAUCUAACAAAAAAGACAAAUCUGCCACAAAGCUUGAGAGCAUCUUCGGAUGCAGAGGCGGCAGCCUUCGGUGGCGCGAUAGCGCCAACGUUCUCAACUAUGACACGCAAAACGCGUGCUCCGUUGAAUGGAGUUUAUCAUG

Variants of: B1
Assay: polymerase ribozyme fitness, log enrichment relative to wild type (log ratio); higher = more active; in vitro selection for triplet polymerase activity
Method in brief: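 Genotype fitness is the logarithm of its enrichment divided by wild-type enrichment, using inverse-variance-weighted averages of replicates. That logarithm is base 2. Enrichment was measured by Illumina sequencing of input and output libraries from one triplicate in vitro selection round, with frozen incubation at −7 °C, on PCR-built, transcribed mutant libraries of each subunit of a heterodimeric triplet polymerase ribozyme, retaining genotypes with ≥10 input reads and ≥1 read per output.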

Compared with GGAUCUUCUCGAUCUAACAAAAAAGACAAAUCUGCCACAAAGCUUGAGAGCAUCUUCGGAUGCAGAGGCGGCAGCCUUCGGUGGCGCGAUAGCGCCAACGGUCUCAACUAUGACACGCAAAACGCGUGCUCCGAUGAAUGGAGCUUAUCUUG [U101G U134A U144C A150U], GGAUCUUCUCGAUCUAACAAAAAAGACAAAUCUGCCACAAAGCUUGAGAGCAUCUUCGGAUGCAGAGGCGGCAGCCUUCGGUGGCGCGAUAGCGCCAACGUACUCAACUAUGCCACGCAAAACGCGUGCUCCGUUGAAUGGAGUUUAUCAUG [U102A A113C] is higher in “polymerase ribozyme fitness (log ratio)” value: -4.09 for the first, -3.86 for the second.

Going from GGAUCUUCUCGAUCUAACAAAAAAGACAAAUCUGCCACAAAGCUUGAGAGCAUCUUCGGAUGCAGAGGCGGCAGCCUUCGGUGGCGCGAUAGCGCCAACGCUCUCAACUAUGACACGCAAAACGCGUGCUCCGUUGAAUGGAGUUUAUCAUG [U101C] to GGAUCUUCUCGAUCUAACAAAAAAGACAAAUCUGCCACAAAGCUUGAGAGCAUCUUCGGAUGCAGAGGCGGCAGCCUUCGGUGGCGCGAUAGCGCCAACGAUCUCAACUAUGACACGCAAAACGCGUGCUCCGUUGAAUGGAGUUUAUCAUG [U101A], the “polymerase ribozyme fitness (log ratio)” value falls from 0.385 to 0.177.

Going from GGAUCUUCUCGAUCUAACAAAAAAGACAAAUCUGCCACAAAGCUUGAGAGCAUCUUCGGAUGCAGAGGCGGCAGCCUUCGGUGGCGCGAUAGCGCCAACGGUCUCAACUAUGACACGCAAAACGCGUGCUCCGUUGAAUGGAGUUUAUCAUG [U101G] to GGAUCUUCUCGAUCUAACAAAAAAGACAAAUCUGCCACAAAGCUUGAGAGCAUCUUCGGAUGCAGAGGCGGCAGCCUUCGGUGGCGCGAUAGCGCCAACGAUCUCAACUAUGACUCGCAAAACGCGUGCUCCGUUGAAUGAAGUUUAUCAUG [U101A A115U G141A], the “polymerase ribozyme fitness (log ratio)” value falls from 0.557 to -2.17.

Going from GGAUCUUCUCGAUCUAACAAAAAAGACAAAUCUGCCACAAAGCUUGAGAGCAUCUUCGGAUGCAGAGGCGGCAGCCUUCGGUGGCGCGAUAGCGCCAACUUUCUCAACUAUGACACGCAAAACGCGUGCUCCGUUGAAUGGAGUUUAUCAUG [G100U] to GGAUCUUCUCGAUCUAACAAAAAAGACAAAUCUGCCACAAAGCUUGAGAGCAUCUUCGGAUGCAGAGGCGGCAGCCUUCGGUGGCGCGAUAGCGCCAACGGUCUCAACUAUGACACGCAAAACGCGUGCUCCGUUGAAUGGAGUUUAUCGUG [U101G A150G], the “polymerase ribozyme fitness (log ratio)” value rises from -2.58 to -0.649.

Going from GGAUCUUCUCGAUCUAACAAAAAAGACAAAUCUGCCACAAAGCUUGAGAGCAUCUUCGGAUGCAGAGGCGGCAGCCUUCGGUGGCGCGAUAGCGCCAACGUACUCAACUAUGAUGCGCAUAACGCGUGCUCCGUUGAAUGGAGUUUAUCAUG [U102A C114U A115G A120U] to GGAUCUUCUCGAUCUAACAAAAAAGACAAAUCUGCCACAAAGCUUGAGAGCAUCUUCGGAUGCAGAGGCGGCAGCCUUCGGUGGCGCGAUAGCGCCAACGUGCUCAACUAUGACACGCAAAACGCGUGCUCCGUUGAAUGGAGUUUAUCAUU [U102G G152U], the “polymerase ribozyme fitness (log ratio)” value falls from -3.62 to no more than -4.2.

Going from GGAUCUUCUCGAUCUAACAAAAAAGACAAAUCUGCCACAAAGCUUGAGAGCAUCUUCGGAUGCAGAGGCGGCAGCCUUCGGUGGCGCGAUAGCGCCAACGGUCUCAACUAUGACACGCAAAACGCGUGCUCCUUUGAAUGGAGUUUAUCAUG [U101G G133U] to GGAUCUUCUCGAUCUAACAAAAAAGACAAAUCUGCCACAAAGCUUGAGAGCAUCUUCGGAUGCAGAGGCGGCAGCCUUCGGUGGCGCGAUAGCGCCAACGUCCUCAACUAUGACACGCAAAACGCGUGCUCCGGUUAUUGGAGUUUAUCAUG [U102C U134G G136U A138U], the “polymerase ribozyme fitness (log ratio)” value falls from -2.8 to no more than -4.2.

Going from GGAUCUUCUCGAUCUAACAAAAAAGACAAAUCUGCCACAAAGCUUGAGAGCAUCUUCGGAUGCAGAGGCGGCAGCCUUCGGUGGCGCGAUAGCGCCAACGAUCUUAACUAUGAAACGCAAAACGCGUGCUCCGUUGAAUGGAGUUUAUCAUG [U101A C105U C114A] to GGAUCUUCUCGAUCUAACAAAAAAGACAAAUCUGCCACAAAGCUUGAGAGCAUCUUCGGAUGCAGAGGCGGCAGCCUUCGGUGGCGCGAUAGCGCCAACGGUCUCAACUAUGACACGCAGAACGCGUGCUCCGUUGAAUGGAGUUUAUCAUG [U101G A120G], the “polymerase ribozyme fitness (log ratio)” value rises from -3.17 to -0.0391.

Going from GGAUCUUCUCGAUCUAACAAAAAAGACAAAUCUGCCACAAAGCUUGAGAGCAUCUUCGGAUGCAGAGGCGGCAGCCUUCGGUGGCGCGAUAGCGCCAACGUUAUCAACGAUGACACGCAAAACGCGUGCUCCGUUGAAUGGAGUUUAUCAUG [C103A U109G] to GGAUCUUCUCGAUCUAACAAAAAAGACAAAUCUGCCACAAAGCUUGAGAGCAUCUUCGGAUGCAGAGGCGGCAGCCUUCGGUGGCGCGAUAGCGCCAACGUGCUCAACUAUGACACGCAUAACGCGUGCUCCGUUGAAUGGAGUUUAUCAUG [U102G A120U], the “polymerase ribozyme fitness (log ratio)” value rises from -3.53 to -1.94.

Going from GGAUCUUCUCGAUCUAACAAAAAAGACAAAUCUGCCACAAAGCUUGAGAGCAUCUUCGGAUGCAGAGGCGGCAGCCUUCGGUGGCGCGAUAGCGCCAACGUUGUCAACUAUGACACGCAAAAGGCGUGCUCCGUUUAAUGGAGUUUAUCAUG [C103G C123G G136U] to GGAUCUUCUCGAUCUAACAAAAAAGACAAAUCUGCCACAAAGCUUGAGAGCAUCUUCGGAUGCAGAGGCGGCAGCCUUCGGUGGCGCGAUAGCGCCAACGUGCUCAACUAUGACACGCAAAACGCGUGCUCCGUUGAAUGGAGUUUAUCAUG [U102G], the “polymerase ribozyme fitness (log ratio)” value rises from -2.77 to -2.51.

With GGAUCUUCUCGAUCUAACAAAAAAGACAAAUCUGCCACAAAGCUUGAGAGCAUCUUCGGAUGCAGAGGCGGCAGCCUUCGGUGGCGCGAUAGCGCCAACGUCCUCAACUAUGACACGCAAAACGCGUGCUCCGUUGAAUGGAGUUUAUCAUG [U102C] the “polymerase ribozyme fitness (log ratio)” value was -0.787.
